Measurements published in patent publication US20150050278A1.

Assays:
nucleolin = nucleolin (UniProt P19338); test: ELISA (FIG. 11)
gp140 [1] = test: ELISA (FIG. 10)
gp140 [2] = test: ELISA on gp140, OD405

affinity (nucleolin) [nM] | affinity (gp140 [1]) [nM] | EC50 (read off the curve) (gp140 [2]) [nM] | Binder
50 |  |  | gn1 (designed binder) APELLGGPSVFLFPPSPKDTLMISRTPEVTCVVVDVSHEDPEVKFNWYVDGVEVHNAKTKPREEQYNSTYSVASLLTVLHQDWLNGKEYKCKVSNKALPAPIEKTISKAKGQPREPQVYTSPPSRDELTKNQVSLRCHVKGFYPSDIAVEWESNGQGAKGSSGSTWGYGMDVWVPVLDSDSSFFLYSKLTVDKSRWQQGNVFSCSVMHEALHNHYTQKSLSLSPGK
 | 50 | 80 | gg37 (designed binder) APELLGGPSVFLFPPTPKDTLMISRTPEVTCVVVDVSHEDPEVKFNWYVDGVEVHNAKTKPREEQYNSTYGVSSGLTVLHQDWLNGKEYKCKVSNKALPAPIEKTISKAKGQPREPQVYTSPPSRDELTKNQVSLRCHVKGFYPSDIAVEWESNGQGARGGMNWFDPWVPVLDSDGSFFLYGKLTVDKSRWQQGNVFSCSVMHEALHNHYTQKSLSLSPGK
